Data from paper PMC6368601.

Target: taxol-stabilized microtubules polymerized from bovine brain tubulin dimers (bovine) (UniProt Q6B856)
Experiment: co-sedimentation; 100 nM ISB (WT, MTBM or Δ20) with various concentrations of taxol-stabilized microtubules; BRB80, 1 mM DTT, 50 mM NaCl, 20 uM paclitaxel; 15 min at room temperature; 50% glycerol cushion, 279,000 x g; blot with anti-Borealin; apparent Kd from a one-site specific binding fit of three experiments

With “ISB^MTBM: INCENP^1-58-Survivin-Borealin(R17E, R19E, K20E) complex (from UniProt Q9NQS7 1-58; O15392 1-142; Q53HL2 1-280)” the Kd was 4.2 µM.
